We go through 5 molecules from paper PMC12520357 (2025).

The target of this assay is T1, 14-3-3 proteins, P29311.
T1 chain: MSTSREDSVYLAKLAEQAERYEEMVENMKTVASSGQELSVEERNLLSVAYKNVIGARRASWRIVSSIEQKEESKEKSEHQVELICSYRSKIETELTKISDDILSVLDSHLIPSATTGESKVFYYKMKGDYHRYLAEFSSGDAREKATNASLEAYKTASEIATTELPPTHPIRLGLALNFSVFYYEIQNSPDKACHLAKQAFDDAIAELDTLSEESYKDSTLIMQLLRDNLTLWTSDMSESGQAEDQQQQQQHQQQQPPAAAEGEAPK
The assay can be described thus: co-immunoprecipitation (anti-FLAG IP, immunoblot quantification). As to conditions: chain shown with the change; n = 3; reg1Δ Snf1-GFP Glc7-GFP cells; parent: est. 1.0; read off a plot. (In general: Immunoblotting shows a protein as a band on a membrane.)

B1: Reg1-FLAG (wild type), Q00816 P278Q (protein)
chain: MSTNLANYFAGKKDIENEHVNRNASHESNSKSDVKISGNDNDNDEDMGPSVSMAVQAKNDDDFHKSTFNLKRTRSMGLLDEYIDPTKKLLGRSDDLYDNDNEYYDNSSNNSSSNSSDDDYDDGYQEHSTSVSPPPADNDSYLIPQDDNDVVVEPERHVDYLSHEWKESEISNSWKYIILKKKKRDVDLVNAARLENASWRTWAKARNNLKTVSPEVVNWSKDSDVTWLYGPIVRDSEGNAQSEEEHDLERGYGSDDENSKRISMPTKNSKSIAAAPKQILKKRTVTEIIEDNALWKLNEARKHMTEMKHASVIMDPNGNKNVHDDFDALAAQVNAQYYHYPKESNSSVSLKSQHSDKKDNSTIPNPVGENSNGGGDKGEEDLHLKSALHVQNNRSTAQSNKSILENSTNDRKANLDQNLNSPDNNRFPSSTSSSNRDNENNSMGLSSILTSNPSEKSNKPTKNRHIHFNDRVEQCMALRYPASQSEDDESDDENKQYVDVNNNANVTTINNNRTPLLAIQHKSIPINSATEHLNKNTSDDDTSSQSSSSSHSDDEEHGGLYINARFSRRSDSGVHSPITDNSSVASSTTSRAHVRPIIKLLPDTTLNYGSDEESDNGEFNGYGNAVSHNVNTSRGYDYIYDYNSVYTGDTSSFLPVDSCDIVDVPEGMDLQTAIADDNASNYEFNNAVESKEKHVPQLHKASANNTTRQHGSHMLLYDDDNYSSSSDSEQQFIEDSQYNSSDDEEEEDDDDQEVDDNHDEGLSLRRTLSLGKSGSTNSLYDLAQPSLSSATPQQKNPTNFTGGKTDVDKDAQLAVRPYPLKRNSSSGNFIFNSDSEEESSSEEEQRPLPANSQLVNRSVLKGSVTPANISSQKKKALPKQPKASDSSQSFRIVNNTPSPAEVGASDVAIEGYFSPRNESIKSVVSGGNMMDHQDHSEMDTLAKGFENCHINNASKLKDKKVDSVQTTRKEASLTDSSNESLHKVVQNARGMASKYLHSWKKSDVKPQENGNDSS
Take B1: the ratio to parent is 1.2.

B2: Reg1-FLAG (wild type), Q00816 A54T (protein)
chain: MSTNLANYFAGKKDIENEHVNRNASHESNSKSDVKISGNDNDNDEDMGPSVSMTVQAKNDDDFHKSTFNLKRTRSMGLLDEYIDPTKKLLGRSDDLYDNDNEYYDNSSNNSSSNSSDDDYDDGYQEHSTSVSPPPADNDSYLIPQDDNDVVVEPERHVDYLSHEWKESEISNSWKYIILKKKKRDVDLVNAARLENASWRTWAKARNNLKTVSPEVVNWSKDSDVTWLYGPIVRDSEGNAQSEEEHDLERGYGSDDENSKRISMPTKNSKSIAAAPKPILKKRTVTEIIEDNALWKLNEARKHMTEMKHASVIMDPNGNKNVHDDFDALAAQVNAQYYHYPKESNSSVSLKSQHSDKKDNSTIPNPVGENSNGGGDKGEEDLHLKSALHVQNNRSTAQSNKSILENSTNDRKANLDQNLNSPDNNRFPSSTSSSNRDNENNSMGLSSILTSNPSEKSNKPTKNRHIHFNDRVEQCMALRYPASQSEDDESDDENKQYVDVNNNANVTTINNNRTPLLAIQHKSIPINSATEHLNKNTSDDDTSSQSSSSSHSDDEEHGGLYINARFSRRSDSGVHSPITDNSSVASSTTSRAHVRPIIKLLPDTTLNYGSDEESDNGEFNGYGNAVSHNVNTSRGYDYIYDYNSVYTGDTSSFLPVDSCDIVDVPEGMDLQTAIADDNASNYEFNNAVESKEKHVPQLHKASANNTTRQHGSHMLLYDDDNYSSSSDSEQQFIEDSQYNSSDDEEEEDDDDQEVDDNHDEGLSLRRTLSLGKSGSTNSLYDLAQPSLSSATPQQKNPTNFTGGKTDVDKDAQLAVRPYPLKRNSSSGNFIFNSDSEEESSSEEEQRPLPANSQLVNRSVLKGSVTPANISSQKKKALPKQPKASDSSQSFRIVNNTPSPAEVGASDVAIEGYFSPRNESIKSVVSGGNMMDHQDHSEMDTLAKGFENCHINNASKLKDKKVDSVQTTRKEASLTDSSNESLHKVVQNARGMASKYLHSWKKSDVKPQENGNDSS
Regarding B2, the ratio to parent is 1.2.

B3: Reg1-FLAG (wild type), Q00816 P231S (protein)
chain: MSTNLANYFAGKKDIENEHVNRNASHESNSKSDVKISGNDNDNDEDMGPSVSMAVQAKNDDDFHKSTFNLKRTRSMGLLDEYIDPTKKLLGRSDDLYDNDNEYYDNSSNNSSSNSSDDDYDDGYQEHSTSVSPPPADNDSYLIPQDDNDVVVEPERHVDYLSHEWKESEISNSWKYIILKKKKRDVDLVNAARLENASWRTWAKARNNLKTVSPEVVNWSKDSDVTWLYGSIVRDSEGNAQSEEEHDLERGYGSDDENSKRISMPTKNSKSIAAAPKPILKKRTVTEIIEDNALWKLNEARKHMTEMKHASVIMDPNGNKNVHDDFDALAAQVNAQYYHYPKESNSSVSLKSQHSDKKDNSTIPNPVGENSNGGGDKGEEDLHLKSALHVQNNRSTAQSNKSILENSTNDRKANLDQNLNSPDNNRFPSSTSSSNRDNENNSMGLSSILTSNPSEKSNKPTKNRHIHFNDRVEQCMALRYPASQSEDDESDDENKQYVDVNNNANVTTINNNRTPLLAIQHKSIPINSATEHLNKNTSDDDTSSQSSSSSHSDDEEHGGLYINARFSRRSDSGVHSPITDNSSVASSTTSRAHVRPIIKLLPDTTLNYGSDEESDNGEFNGYGNAVSHNVNTSRGYDYIYDYNSVYTGDTSSFLPVDSCDIVDVPEGMDLQTAIADDNASNYEFNNAVESKEKHVPQLHKASANNTTRQHGSHMLLYDDDNYSSSSDSEQQFIEDSQYNSSDDEEEEDDDDQEVDDNHDEGLSLRRTLSLGKSGSTNSLYDLAQPSLSSATPQQKNPTNFTGGKTDVDKDAQLAVRPYPLKRNSSSGNFIFNSDSEEESSSEEEQRPLPANSQLVNRSVLKGSVTPANISSQKKKALPKQPKASDSSQSFRIVNNTPSPAEVGASDVAIEGYFSPRNESIKSVVSGGNMMDHQDHSEMDTLAKGFENCHINNASKLKDKKVDSVQTTRKEASLTDSSNESLHKVVQNARGMASKYLHSWKKSDVKPQENGNDSS
As for B3, the ratio to parent came to 1.2.

B4: Reg1-FLAG (wild type), Q00816 W165G (protein)
chain: MSTNLANYFAGKKDIENEHVNRNASHESNSKSDVKISGNDNDNDEDMGPSVSMAVQAKNDDDFHKSTFNLKRTRSMGLLDEYIDPTKKLLGRSDDLYDNDNEYYDNSSNNSSSNSSDDDYDDGYQEHSTSVSPPPADNDSYLIPQDDNDVVVEPERHVDYLSHEGKESEISNSWKYIILKKKKRDVDLVNAARLENASWRTWAKARNNLKTVSPEVVNWSKDSDVTWLYGPIVRDSEGNAQSEEEHDLERGYGSDDENSKRISMPTKNSKSIAAAPKPILKKRTVTEIIEDNALWKLNEARKHMTEMKHASVIMDPNGNKNVHDDFDALAAQVNAQYYHYPKESNSSVSLKSQHSDKKDNSTIPNPVGENSNGGGDKGEEDLHLKSALHVQNNRSTAQSNKSILENSTNDRKANLDQNLNSPDNNRFPSSTSSSNRDNENNSMGLSSILTSNPSEKSNKPTKNRHIHFNDRVEQCMALRYPASQSEDDESDDENKQYVDVNNNANVTTINNNRTPLLAIQHKSIPINSATEHLNKNTSDDDTSSQSSSSSHSDDEEHGGLYINARFSRRSDSGVHSPITDNSSVASSTTSRAHVRPIIKLLPDTTLNYGSDEESDNGEFNGYGNAVSHNVNTSRGYDYIYDYNSVYTGDTSSFLPVDSCDIVDVPEGMDLQTAIADDNASNYEFNNAVESKEKHVPQLHKASANNTTRQHGSHMLLYDDDNYSSSSDSEQQFIEDSQYNSSDDEEEEDDDDQEVDDNHDEGLSLRRTLSLGKSGSTNSLYDLAQPSLSSATPQQKNPTNFTGGKTDVDKDAQLAVRPYPLKRNSSSGNFIFNSDSEEESSSEEEQRPLPANSQLVNRSVLKGSVTPANISSQKKKALPKQPKASDSSQSFRIVNNTPSPAEVGASDVAIEGYFSPRNESIKSVVSGGNMMDHQDHSEMDTLAKGFENCHINNASKLKDKKVDSVQTTRKEASLTDSSNESLHKVVQNARGMASKYLHSWKKSDVKPQENGNDSS
Turning to B4, the ratio to parent stood at 1.1.

B5: Reg1-FLAG (wild type), Q00816 N624S (protein)
chain: MSTNLANYFAGKKDIENEHVNRNASHESNSKSDVKISGNDNDNDEDMGPSVSMAVQAKNDDDFHKSTFNLKRTRSMGLLDEYIDPTKKLLGRSDDLYDNDNEYYDNSSNNSSSNSSDDDYDDGYQEHSTSVSPPPADNDSYLIPQDDNDVVVEPERHVDYLSHEWKESEISNSWKYIILKKKKRDVDLVNAARLENASWRTWAKARNNLKTVSPEVVNWSKDSDVTWLYGPIVRDSEGNAQSEEEHDLERGYGSDDENSKRISMPTKNSKSIAAAPKPILKKRTVTEIIEDNALWKLNEARKHMTEMKHASVIMDPNGNKNVHDDFDALAAQVNAQYYHYPKESNSSVSLKSQHSDKKDNSTIPNPVGENSNGGGDKGEEDLHLKSALHVQNNRSTAQSNKSILENSTNDRKANLDQNLNSPDNNRFPSSTSSSNRDNENNSMGLSSILTSNPSEKSNKPTKNRHIHFNDRVEQCMALRYPASQSEDDESDDENKQYVDVNNNANVTTINNNRTPLLAIQHKSIPINSATEHLNKNTSDDDTSSQSSSSSHSDDEEHGGLYINARFSRRSDSGVHSPITDNSSVASSTTSRAHVRPIIKLLPDTTLNYGSDEESDNGEFNGYGSAVSHNVNTSRGYDYIYDYNSVYTGDTSSFLPVDSCDIVDVPEGMDLQTAIADDNASNYEFNNAVESKEKHVPQLHKASANNTTRQHGSHMLLYDDDNYSSSSDSEQQFIEDSQYNSSDDEEEEDDDDQEVDDNHDEGLSLRRTLSLGKSGSTNSLYDLAQPSLSSATPQQKNPTNFTGGKTDVDKDAQLAVRPYPLKRNSSSGNFIFNSDSEEESSSEEEQRPLPANSQLVNRSVLKGSVTPANISSQKKKALPKQPKASDSSQSFRIVNNTPSPAEVGASDVAIEGYFSPRNESIKSVVSGGNMMDHQDHSEMDTLAKGFENCHINNASKLKDKKVDSVQTTRKEASLTDSSNESLHKVVQNARGMASKYLHSWKKSDVKPQENGNDSS
For B5, the ratio to parent came to 1.4.
